Among the data in patent US20090197263, “Compare-MS: Method Rapid, Sensitive and Accurate Detection of DNA Methylation” (published 2009) are EC50 values, retold here.

In data set [1] the target is T1, MBD2-MBD (methyl-binding domain of MBD2) (Homo sapiens, UniProt Q9UBB5 Q9UBB5:145-213). The experiment in a line: FP; 10 nM hairpin; 50 mM NaCl, 1 mM MgCl2, 10 mM Tris pH 7.4, room temp. As to conditions: tags: C-terminal 6xHis (pFBC6H baculovirus vector, Sf9), label: 5'-6FAM. The procedure: (§1) 10 nM of annealed, fluorescently-labeled hairpin oligonucleotides with the sequence 5′-6FAM-[…]-3′ (SEQ ID NO:4) with no methylated CpGs (unmethylated hairpin), 2 methylated CpGs at the 2nd and 5th CpGs from the 5′ end (1 symmetrically methylated CpG hairpin), 3 methylated CpGs toward the 3′ end (3 asymmetrically methylated CpG hairpin), 4 methylated CpGs at the 1st, 2nd, 5th, and 6th CpGs from the 5′ end (2 symmetrically methylated CpG hairpin), or 6 methylated CpGs (3 symmetrically methylated CpG hairpin) were incubated with various concentrations of recombinant MBD2-MBD in a 50 μL reaction volume containing 4% glycerol, 1 mM MgCl₂, 0.5 mM EDTA, 0.5 mM DTT, 50 mM NaCl, 10 mM Tris-HCl (pH 7.4), 0.2% Tween-20 for 1 hour at room temperature with gentle shaking. Fluorescence polarization measurements were taken in triplicate using a Beckman Coulter DTX 880 Multimode Detector as described previously (Lee et al., (2005), supra). Briefly, fluorescence anisotropies (r) were calculated as
(§2) 6His-tagged methyl-binding domain of human MBD2 (MBD2-MBD) was expressed in Sf9 insect cells using a baculoviral expression system and purified using Ni-NTA Superflow beads (Qiagen, Valencia, Calif.). The affinities of MBD2-MBD for fluorescently labeled hairpin oligonucleotides containing various configurations of CpG methylation were then determined by fluorescence polarization (FIG. 2). […]

The target of data set [2] is T1, MBD2-MBD (methyl-binding domain of MBD2). Description: FP; 10 nM hairpin; 50 mM NaCl, 1 mM MgCl2, 10 mM Tris pH 7.4, room temp; text gives 2 or 3 sites as 156 and 222 nM respectively but cites FIGS. 2A (three pairs) and. As to conditions: tags: C-terminal 6xHis (pFBC6H baculovirus vector, Sf9), label: 5'-6FAM. The procedure:
as §1, §2

T1 sequence (Q9UBB5 145-213, one chain of several): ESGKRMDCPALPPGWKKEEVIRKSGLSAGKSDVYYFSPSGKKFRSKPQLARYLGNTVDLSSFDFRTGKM

As a reminder, the EC50 is the concentration at which the effect is half-maximal. Read a high EC50 as lower potency in that assay. In turn, ATCGTCGTACGTTTTCGTACGACGAT (structured_DNA, 5mC at 2nd and 5th CpGs from 5' end (C6, C20)) [1 symmetrically methylated CpG hairpin] had a 50% effective concentration (EC50) in data set [1] of 519 nM.

As to ATCGTCGTACGTTTTCGTACGACGAT (structured_DNA, 5mC at 1st, 2nd, 5th and 6th CpGs from 5' end (C3, C6, C20, C23)) [2 symmetrically methylated CpG hairpin], the concentration for a half-maximal effect (EC50) in data set [2] came to 156 nM.
